Binding result and Kd data for three molecules are collected here from publication PMC7761795 (Biochemistry, 2020).

One test addresses OTUB1 wild-type (human (by the printed UniProt accession), UniProt Q96FW1 1-271). Put plainly: ITC. On the technique in general: In ITC the heat of successive injections is recorded.
The next test deals with OTUB1 (C91S) (human (by the printed UniProt accession), UniProt Q96FW1 1-271, C91S). Put plainly: ITC.
Chain of OTUB1 (C91S) (Q96FW1 whole entry C91S): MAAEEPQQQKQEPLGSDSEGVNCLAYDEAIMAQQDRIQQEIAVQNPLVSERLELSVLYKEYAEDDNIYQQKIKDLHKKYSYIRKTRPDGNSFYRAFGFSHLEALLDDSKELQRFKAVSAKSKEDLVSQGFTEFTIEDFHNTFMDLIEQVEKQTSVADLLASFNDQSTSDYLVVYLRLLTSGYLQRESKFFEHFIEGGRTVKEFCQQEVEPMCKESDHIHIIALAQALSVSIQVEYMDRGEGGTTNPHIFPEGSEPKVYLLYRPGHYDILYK

Chain of OTUB1 wild-type (Q96FW1 whole entry): as the sequence (Q96FW1 whole entry C91S) above, with S91C counted along it

B1: UBE2D1 (enzyme)
chain: not shown
In the case of B1, the binding result in the test with OTUB1 wild-type and with OTUB1 (C91S) was “binds” in each case.

B2: UBE2E1 (enzyme, human, UniProt P51965 1-193, looked up)
chain: MSDDDSRASTSSSSSSSSNQQTEKETNTPKKKESKVSMSKNSKLLSTSAKRIQKELADITLDPPPNCSAGPKGDNIYEWRSTILGPPGSVYEGGVFFLDITFTPEYPFKPPKVTFRTRIYHCNINSQGVICLDILKDNWSPALTISKVLLSICSLLTDCNPADPLVGSIATQYMTNRAEHDRMARQWTKRYAT
In the case of B2, the binding result in the test with OTUB1 (C91S) is given as “binds”.

B3: UBE2N (enzyme, human, UniProt P61088 1-152, looked up)
chain: MAGLPRRIIKETQRLLAEPVPGIKAEPDESNARYFHVVIAGPQDSPFEGGTFKLELFLPEEYPMAAPKVRFMTKIYHPNVDKLGRICLDILKDKWSPALQIRTVLLSIQALLSAPNPDDPLANDVAEQWKTNEAQAIETARAWTRLYAMNNI
By Kd is commonly meant the constant that tells how readily two partners part at equilibrium. In the case of B3, the dissociation constant Kd in the test with OTUB1 (C91S) was found to be 8.1 µM.
